Results as given in US11965039B2, “Compstatin analogues and their medical uses” (priority 2018, dated 2024).
Starred links: 1 amine or outer side, 2 acyl side, 3 side chain; linkers in the order of their positions; H or OH if unused. Positions of bridges follow the written chain, without caps; N, C: chain ends. Non-standard residues stand in square brackets, D forms with d. Groups on a side chain read outwards from the residue. *: point of attachment. Trp(1-Me) = Cn1cc(C[C@H](N)C(=O)O)c2ccccc21; C18 diacid = O=C(O)CCCCCCCCCCCCCCCCC(=O)*; C16 diacid = O=C(O)CCCCCCCCCCCCCCC(=O)*; γGlu = O=C(O)[C@H](CCC(=O)[*:2])N[*:1]; AEEA = NCCOCCOCC(=O)O; Sar = CNCC(=O)O

Key:
[1] = molecular target: T1, Human C3 (Complement tech cat #A113c) (human, UniProt P01024 23-1663); experiment: SPR (Biacore T200), human C3 immobilised, peptide injected, 1:1 fit
T1 construct: Purified protein immobilised by amine coupling in the SPR assay; in the haemolysis assay it is the C3 of diluted human serum; Native C3 consists of a beta and an alpha chain cut from one precursor; also called C3 protein
Experimental: Surface plasmon resonance (SPR) was used to characterize peptides with respect to their binding affinity (Kd) for C3. Human C3 (Complement tech cat #A113c) was immobilised on individual flow cells of CM5 sensor chips (GE Healthcare) using standard amine coupling to a density of approximately 3000 resonance units (RU) in a buffer consisting of 10 mM phosphate pH 7.4, 150 mM NaCl, 0.05% Tween20.
For interaction experiments a multi-cycle experiment approach was used and performed using a BiacoreT200™ instrument (GE Healthcare) at 25° C. Peptides were injected in increasing concentration series (6-8 different concentrations) for 60-120 sat a flow rate of 30 µL/min in a buffer consisting of 10 mM Tris buffer at pH 7.4, with 150 mM NaCl and 0.05% Tween20. This was followed by a dissociation period for up to 10 min. The C3 surface was regenerated between runs by a 45 s injection of 3 M MgCl_2.

[2] = molecular target: T1, Human C3 (Complement tech cat #A113c); experiment: cell-based or functional assay

T1 sequence (P01024 23-1663 limits assumed): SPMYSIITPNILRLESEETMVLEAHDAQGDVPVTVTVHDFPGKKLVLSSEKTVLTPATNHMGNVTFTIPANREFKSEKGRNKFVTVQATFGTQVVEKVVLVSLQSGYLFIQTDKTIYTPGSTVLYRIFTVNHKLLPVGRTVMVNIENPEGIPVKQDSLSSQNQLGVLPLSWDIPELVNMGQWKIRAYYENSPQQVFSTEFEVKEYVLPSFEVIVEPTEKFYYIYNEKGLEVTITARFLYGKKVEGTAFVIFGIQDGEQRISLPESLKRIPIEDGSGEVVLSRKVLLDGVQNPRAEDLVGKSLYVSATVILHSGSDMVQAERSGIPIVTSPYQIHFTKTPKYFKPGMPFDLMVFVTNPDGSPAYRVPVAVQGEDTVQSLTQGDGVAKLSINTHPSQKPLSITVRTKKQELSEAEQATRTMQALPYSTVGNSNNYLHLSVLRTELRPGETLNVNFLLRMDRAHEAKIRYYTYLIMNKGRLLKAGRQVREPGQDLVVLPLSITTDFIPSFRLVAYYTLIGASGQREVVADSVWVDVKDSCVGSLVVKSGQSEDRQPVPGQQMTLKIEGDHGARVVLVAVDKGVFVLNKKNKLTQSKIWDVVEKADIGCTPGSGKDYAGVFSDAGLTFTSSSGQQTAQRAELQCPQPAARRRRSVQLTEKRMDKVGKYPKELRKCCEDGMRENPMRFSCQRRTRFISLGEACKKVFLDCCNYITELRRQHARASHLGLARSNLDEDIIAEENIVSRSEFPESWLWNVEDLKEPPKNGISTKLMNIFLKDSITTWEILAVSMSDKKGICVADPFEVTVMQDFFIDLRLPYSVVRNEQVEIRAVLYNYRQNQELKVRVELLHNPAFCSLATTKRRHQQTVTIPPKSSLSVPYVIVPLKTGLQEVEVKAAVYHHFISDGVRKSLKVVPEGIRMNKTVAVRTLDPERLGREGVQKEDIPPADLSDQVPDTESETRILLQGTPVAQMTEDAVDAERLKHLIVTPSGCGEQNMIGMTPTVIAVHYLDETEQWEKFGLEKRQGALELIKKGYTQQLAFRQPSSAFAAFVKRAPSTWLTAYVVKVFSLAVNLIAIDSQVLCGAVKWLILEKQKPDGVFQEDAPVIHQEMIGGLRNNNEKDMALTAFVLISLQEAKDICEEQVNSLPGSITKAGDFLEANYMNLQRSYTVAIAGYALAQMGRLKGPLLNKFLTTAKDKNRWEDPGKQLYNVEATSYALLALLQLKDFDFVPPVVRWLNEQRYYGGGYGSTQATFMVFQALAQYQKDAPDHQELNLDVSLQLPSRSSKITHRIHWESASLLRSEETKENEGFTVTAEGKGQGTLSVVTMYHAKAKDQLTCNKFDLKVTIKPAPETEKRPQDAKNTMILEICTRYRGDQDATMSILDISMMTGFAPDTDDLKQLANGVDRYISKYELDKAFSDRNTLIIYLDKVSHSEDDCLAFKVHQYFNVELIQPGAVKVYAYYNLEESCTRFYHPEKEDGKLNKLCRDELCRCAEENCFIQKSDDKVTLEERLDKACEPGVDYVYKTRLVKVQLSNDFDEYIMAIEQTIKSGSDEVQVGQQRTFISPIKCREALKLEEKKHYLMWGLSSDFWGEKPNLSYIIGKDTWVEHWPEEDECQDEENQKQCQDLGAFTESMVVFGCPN

Row | Kd [1] | Binder | inhibition of hemolysis IC50 [2]
1 | 30 nM | Ac-SEYCI[Trp(1-Me)]QEW[Sar]EHRC[Sar]EK[γGlu]AK([AEEA-γGlu-AEEA-Gly-γGlu-C18 diacid])-NH2 (disulfide 4-14; SMILES CC[C@H](C)[C@@H]1NC(=O)[C@@H](NC(=O)[C@H](Cc2ccc(O)cc2)NC(=O)[C@H](CCC(=O)O)NC(=O)[C@H](CO)NC(C)=O)CSSC[C@@H](C(=O)N(C)CC(=O)N[C@@H](CCC(=O)O)C(=O)N[C@@H](CCCCN)C(=O)N[C@@H](CCC(=O)N[C@@H](C)C(=O)N[C@@H](CCCCNC(=O)COCCOCCNC(=O)CC[C@H](NC(=O)COCCOCCNC(=O)CNC(=O)CC[C@H](NC(=O)CCCCCCCCCCCCCCCCC(=O)O)C(=O)O)C(=O)O)C(N)=O)C(=O)O)NC(=O)[C@H](CCCNC(=N)N)NC(=O)[C@H](Cc2c[nH]cn2)NC(=O)[C@H](CCC(=O)O)NC(=O)CN(C)C(=O)[C@H](Cc2c[nH]c3ccccc23)NC(=O)[C@H](CCC(=O)O)NC(=O)[C@H](CCC(N)=O)NC(=O)[C@H](Cc2cn(C)c3ccccc23)NC1=O) [Compound 121] | < 250 nM
2 | 11 nM | Ac-SEFCI[Trp(1-Me)]QDWGEHRC[Sar]EGE-{AEEA-AEEA-K(γGlu-Gly-γGlu-17-carboxy-heptadecanoyl)-NH2} (disulfide 4-14) [Compound 123] | < 100 nM
3 | 71 nM | Ac-SEYCI[Trp(1-Me)]QEWGEHRC[Sar]EGE-{AEEA-AEEA-K(γGlu-Gly-γGlu-17-carboxy-heptadecanoyl)-NH2} (disulfide 4-14) [Compound 125] | < 500 nM
4 | 31 nM | Ac-SEFCI[Trp(1-Me)]QEWGEHRC[Sar]EGE-{AEEA-AEEA-K(γGlu-Gly-γGlu-17-carboxy-heptadecanoyl)-NH2} (disulfide 4-14) [Compound 124] | < 100 nM
5 | 24 nM | Ac-SEYCI[Trp(1-Me)]QDWGEHRC[Sar]EGE-{AEEA-AEEA-K(γGlu-Gly-γGlu-17-carboxy-heptadecanoyl)-NH2} (disulfide 4-14) [Compound 117] | < 250 nM
6 | 8.2 nM | Ac-EGSAYCI[Trp(1-Me)]QDWGEHRC[Sar]EK[γGlu]K([AEEA-AEEA-γGlu-C18 diacid])-NH2 (disulfide 6-16; SMILES CC[C@H](C)[C@@H]1NC(=O)[C@@H](NC(=O)[C@H](Cc2ccc(O)cc2)NC(=O)[C@H](C)NC(=O)[C@H](CO)NC(=O)CNC(=O)[C@H](CCC(=O)O)NC(C)=O)CSSC[C@@H](C(=O)N(C)CC(=O)N[C@@H](CCC(=O)O)C(=O)N[C@@H](CCCCN)C(=O)N[C@@H](CCC(=O)N[C@@H](CCCCNC(=O)COCCOCCNC(=O)COCCOCCNC(=O)CC[C@H](NC(=O)CCCCCCCCCCCCCCCCC(=O)O)C(=O)O)C(N)=O)C(=O)O)NC(=O)[C@H](CCCNC(=N)N)NC(=O)[C@H](Cc2c[nH]cn2)NC(=O)[C@H](CCC(=O)O)NC(=O)CNC(=O)[C@H](Cc2c[nH]c3ccccc23)NC(=O)[C@H](CC(=O)O)NC(=O)[C@H](CCC(N)=O)NC(=O)[C@H](Cc2cn(C)c3ccccc23)NC1=O) [Compound 111] | < 100 nM
7 | 1.4 nM | Ac-EGSAFCI[Trp(1-Me)]QDWGEHRC[Sar]E-NH2 (disulfide 6-16; SMILES CC[C@H](C)[C@@H]1NC(=O)[C@@H](NC(=O)[C@H](Cc2ccccc2)NC(=O)[C@H](C)NC(=O)[C@H](CO)NC(=O)CNC(=O)[C@H](CCC(=O)O)NC(C)=O)CSSC[C@@H](C(=O)N(C)CC(=O)N[C@@H](CCC(=O)O)C(N)=O)NC(=O)[C@H](CCCNC(=N)N)NC(=O)[C@H](Cc2c[nH]cn2)NC(=O)[C@H](CCC(=O)O)NC(=O)CNC(=O)[C@H](Cc2c[nH]c3ccccc23)NC(=O)[C@H](CC(=O)O)NC(=O)[C@H](CCC(N)=O)NC(=O)[C@H](Cc2cn(C)c3ccccc23)NC1=O) [Compound 53] | < 100 nM
8 | 6.1 nM | {C16 diacid}-EGSEYCI[Trp(1-Me)]QDWGEHRC[Sar]E-NH2 (disulfide 6-16; also: places 15-carboxy-pentadecanoyl on side chain of Glu1, mods on N-terminus) [Compound 107] | < 100 nM
9 | 3 nM | Ac-EGSAYCI[Trp(1-Me)]QDWGEHRC[Sar]E-NH2 (disulfide 6-16; SMILES CC[C@H](C)[C@@H]1NC(=O)[C@@H](NC(=O)[C@H](Cc2ccc(O)cc2)NC(=O)[C@H](C)NC(=O)[C@H](CO)NC(=O)CNC(=O)[C@H](CCC(=O)O)NC(C)=O)CSSC[C@@H](C(=O)N(C)CC(=O)N[C@@H](CCC(=O)O)C(N)=O)NC(=O)[C@H](CCCNC(=N)N)NC(=O)[C@H](Cc2c[nH]cn2)NC(=O)[C@H](CCC(=O)O)NC(=O)CNC(=O)[C@H](Cc2c[nH]c3ccccc23)NC(=O)[C@H](CC(=O)O)NC(=O)[C@H](CCC(N)=O)NC(=O)[C@H](Cc2cn(C)c3ccccc23)NC1=O) [Compound 54] | < 100 nM
10 | 11 nM | Ac-SEYCI[Trp(1-Me)]QDWGEHRC[Sar]EGAK([AEEA-γGlu-AEEA-Gly-γGlu-C18 diacid])-NH2 (disulfide 4-14; SMILES CC[C@H](C)[C@@H]1NC(=O)[C@@H](NC(=O)[C@H](Cc2ccc(O)cc2)NC(=O)[C@H](CCC(=O)O)NC(=O)[C@H](CO)NC(C)=O)CSSC[C@@H](C(=O)N(C)CC(=O)N[C@@H](CCC(=O)O)C(=O)NCC(=O)N[C@@H](C)C(=O)N[C@@H](CCCCNC(=O)COCCOCCNC(=O)CC[C@H](NC(=O)COCCOCCNC(=O)CNC(=O)CC[C@H](NC(=O)CCCCCCCCCCCCCCCCC(=O)O)C(=O)O)C(=O)O)C(N)=O)NC(=O)[C@H](CCCNC(=N)N)NC(=O)[C@H](Cc2c[nH]cn2)NC(=O)[C@H](CCC(=O)O)NC(=O)CNC(=O)[C@H](Cc2c[nH]c3ccccc23)NC(=O)[C@H](CC(=O)O)NC(=O)[C@H](CCC(N)=O)NC(=O)[C@H](Cc2cn(C)c3ccccc23)NC1=O) [Compound 118] | < 100 nM
11 | 9.8 nM | Ac-SEFCI[Trp(1-Me)]QDWGEHRC[Sar]EGAK([AEEA-γGlu-AEEA-Gly-γGlu-C18 diacid])-NH2 (disulfide 4-14; SMILES CC[C@H](C)[C@@H]1NC(=O)[C@@H](NC(=O)[C@H](Cc2ccccc2)NC(=O)[C@H](CCC(=O)O)NC(=O)[C@H](CO)NC(C)=O)CSSC[C@@H](C(=O)N(C)CC(=O)N[C@@H](CCC(=O)O)C(=O)NCC(=O)N[C@@H](C)C(=O)N[C@@H](CCCCNC(=O)COCCOCCNC(=O)CC[C@H](NC(=O)COCCOCCNC(=O)CNC(=O)CC[C@H](NC(=O)CCCCCCCCCCCCCCCCC(=O)O)C(=O)O)C(=O)O)C(N)=O)NC(=O)[C@H](CCCNC(=N)N)NC(=O)[C@H](Cc2c[nH]cn2)NC(=O)[C@H](CCC(=O)O)NC(=O)CNC(=O)[C@H](Cc2c[nH]c3ccccc23)NC(=O)[C@H](CC(=O)O)NC(=O)[C@H](CCC(N)=O)NC(=O)[C@H](Cc2cn(C)c3ccccc23)NC1=O, also called Compound No 119) [Compound 119] | < 100 nM
12 | 63 nM | Ac-SEYCI[Trp(1-Me)]QEWGEHRC[Sar]EGAK([AEEA-γGlu-AEEA-Gly-γGlu-C18 diacid])-NH2 (disulfide 4-14; SMILES CC[C@H](C)[C@@H]1NC(=O)[C@@H](NC(=O)[C@H](Cc2ccc(O)cc2)NC(=O)[C@H](CCC(=O)O)NC(=O)[C@H](CO)NC(C)=O)CSSC[C@@H](C(=O)N(C)CC(=O)N[C@@H](CCC(=O)O)C(=O)NCC(=O)N[C@@H](C)C(=O)N[C@@H](CCCCNC(=O)COCCOCCNC(=O)CC[C@H](NC(=O)COCCOCCNC(=O)CNC(=O)CC[C@H](NC(=O)CCCCCCCCCCCCCCCCC(=O)O)C(=O)O)C(=O)O)C(N)=O)NC(=O)[C@H](CCCNC(=N)N)NC(=O)[C@H](Cc2c[nH]cn2)NC(=O)[C@H](CCC(=O)O)NC(=O)CNC(=O)[C@H](Cc2c[nH]c3ccccc23)NC(=O)[C@H](CCC(=O)O)NC(=O)[C@H](CCC(N)=O)NC(=O)[C@H](Cc2cn(C)c3ccccc23)NC1=O) [Compound 122] | < 500 nM
13 | 28 nM | Ac-SEFCI[Trp(1-Me)]QEWGEHRC[Sar]EGAK([AEEA-γGlu-AEEA-Gly-γGlu-C18 diacid])-NH2 (disulfide 4-14; SMILES CC[C@H](C)[C@@H]1NC(=O)[C@@H](NC(=O)[C@H](Cc2ccccc2)NC(=O)[C@H](CCC(=O)O)NC(=O)[C@H](CO)NC(C)=O)CSSC[C@@H](C(=O)N(C)CC(=O)N[C@@H](CCC(=O)O)C(=O)NCC(=O)N[C@@H](C)C(=O)N[C@@H](CCCCNC(=O)COCCOCCNC(=O)CC[C@H](NC(=O)COCCOCCNC(=O)CNC(=O)CC[C@H](NC(=O)CCCCCCCCCCCCCCCCC(=O)O)C(=O)O)C(=O)O)C(N)=O)NC(=O)[C@H](CCCNC(=N)N)NC(=O)[C@H](Cc2c[nH]cn2)NC(=O)[C@H](CCC(=O)O)NC(=O)CNC(=O)[C@H](Cc2c[nH]c3ccccc23)NC(=O)[C@H](CCC(=O)O)NC(=O)[C@H](CCC(N)=O)NC(=O)[C@H](Cc2cn(C)c3ccccc23)NC1=O) [Compound 120] | < 250 nM
